Laboratory results as given in article PMC12487888, “Molecular basis of the biogenesis of a protein organelle for ethanolamine utilization” (Science Advances, 2025).

B2: EutL-strep (natural protein, S. Typhimurium LT2, UniProt P0A1C9 1-219, looked up)
chain: MPALDLIRPSVTAMRVIASVNDGFARELKLPPHIRSLGLITADSDDVTYIAADEATKQAMVEVVYGRSLYAGAAHGPSPTAGEVLIMLGGPNPAEVRAGLDAMVASIENGAAFQWANDAENTAFLAHVVSRTGSYLSSTAGIALGDPMAYLVAPPLEATFGIDAAMKSADVQLVTYVPPPSETNYSAAFLTGSQAACKAACNAFTDAVLDIARNPVQRA
notes: shell protein EutL of S. Typhimurium LT2; the eutL gene was inserted into pET-22b (+); not shown: Strep tag, C-terminal, kept

Assays:
Details in all cases: both partners purified
[1] = molecular target: T1, EutQ-strep (S. Typhimurium LT2, UniProt Q9ZFV5 1-229); experiment: MST; His-tagged target protein labelled with dye, 0.25 μM; unlabelled strep-tagged protein in twofold dilution series (EutL up to 24 μM, EutQ up to 108 μM); Monolith NT.115, 25°C, 60% excitation power
T1 construct: EutQ of S. Typhimurium LT2; the eutQ gene was inserted into pET-22b (+); source: E. coli BL21(DE3), purified (Strep-tag XT, gel filtration); not shown: Strep tag, C-terminal, kept
T1 sequence: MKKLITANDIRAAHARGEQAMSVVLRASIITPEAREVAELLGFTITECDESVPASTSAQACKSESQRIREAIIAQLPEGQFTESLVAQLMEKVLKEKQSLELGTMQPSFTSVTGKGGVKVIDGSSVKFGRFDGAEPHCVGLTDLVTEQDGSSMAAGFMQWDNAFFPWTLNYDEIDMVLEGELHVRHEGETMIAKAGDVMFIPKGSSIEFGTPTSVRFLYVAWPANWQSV

[2] = molecular target: B2; experiment: as above
[3] = molecular target: T2, EutQ-his (S. Typhimurium LT2, UniProt Q9ZFV5 1-229, dye on the His tag (His-tagged target proteins were labelled with dyes)); experiment: as above
T2 construct: EutQ of S. Typhimurium LT2; the eutQ gene was inserted into pET-22b (+); source: E. coli BL21(DE3), purified (Ni-NTA, gel filtration); not shown: His tag, C-terminal, kept
T2 sequence (looked up): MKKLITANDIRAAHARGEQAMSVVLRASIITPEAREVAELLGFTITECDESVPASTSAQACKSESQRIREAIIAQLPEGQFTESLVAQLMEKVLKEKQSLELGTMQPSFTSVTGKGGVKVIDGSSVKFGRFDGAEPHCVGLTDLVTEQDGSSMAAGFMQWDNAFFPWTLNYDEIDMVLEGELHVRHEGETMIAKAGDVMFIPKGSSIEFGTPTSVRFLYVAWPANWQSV

[4] = molecular target: T3, EutQ (residues 1 to 229) (S. Typhimurium LT2, UniProt Q9ZFV5 1-229); experiment: ITC; 20 μM protein in the cell, 200 to 400 μM peptide in the syringe; 19 injections, 25°C; 20 mM Na2HPO4, 20 mM NaCl, pH 6.5
T3 construct: About 25 kDa per monomer, about 50 kDa dimer by SEC-MALS; Uniformly 15N-labelled for NMR; also called full-length EutQ; WT EutQ; source: E. coli BL21 (DE3) star, purified (His-trap, SEC on S200 Superdex)
T3 sequence: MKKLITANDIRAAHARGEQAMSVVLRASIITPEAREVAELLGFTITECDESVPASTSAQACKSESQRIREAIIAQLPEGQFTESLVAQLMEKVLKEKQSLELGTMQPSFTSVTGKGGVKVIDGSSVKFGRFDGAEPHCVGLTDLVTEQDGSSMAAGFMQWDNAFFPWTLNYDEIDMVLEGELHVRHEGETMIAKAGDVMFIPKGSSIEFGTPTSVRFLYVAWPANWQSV

[5] = molecular target: T4, EutQ N-terminal domain fused with GB1 at its C terminus (EutQ^1–99-GB1) (S. Typhimurium LT2, UniProt Q9ZFV5 1-99); experiment: as above
T4 construct: EutQ of S. Typhimurium LT2, N-terminal region, residues 1-99 (helices H1 to H4); Cloned into pETM11; Order of the chain: EutQ 1-99, hexahistidine tag, GB1; Uniformly 15N-labelled (15N, 13C for assignment) for NMR; also called N-terminal region of EutQ; source: E. coli BL21 (DE3) star, purified (His-trap, SEC on S200 Superdex)
T4 sequence: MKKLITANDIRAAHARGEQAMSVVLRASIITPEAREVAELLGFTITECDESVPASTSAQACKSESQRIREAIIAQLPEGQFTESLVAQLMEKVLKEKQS

[6] = molecular target: T5, EutQ Q75A (S. Typhimurium LT2, UniProt Q9ZFV5 1-229, Q75A); experiment: ITC; point mutants of EutQ against EutC^1–20 (figs. S25 and S26); the method is not given, the Kd is compared with the ITC Kd of WT EutQ
T5 construct: EutQ of S. Typhimurium LT2 with the point mutation Q75A; also called Q75A mutant
T5 sequence: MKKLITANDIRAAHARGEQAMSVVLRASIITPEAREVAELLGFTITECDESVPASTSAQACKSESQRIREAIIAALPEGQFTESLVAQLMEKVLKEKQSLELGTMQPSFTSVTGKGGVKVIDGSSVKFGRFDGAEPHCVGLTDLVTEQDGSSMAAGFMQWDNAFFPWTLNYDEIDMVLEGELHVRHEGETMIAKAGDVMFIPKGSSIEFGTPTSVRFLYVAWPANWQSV

B1: EutM-his (natural protein)
chain: MEALGMIETRGLVALIEASDAMVKAARVKLVGVKQIGGGLCTAMVRGDVAACKAATDAGAAAAQRIGELVSVHVIPRPHGDLEEVFPISFKGDSNI
modifications: dye on the His tag (His-tagged target proteins were labelled with dyes)
notes: shell protein EutM of S. Typhimurium LT2; the eutM gene was inserted into pET-22b (+); source: E. coli BL21(DE3), purified (Ni-NTA, gel filtration); not shown: His tag, C-terminal, kept
binding result [1]: binds
binding result [2]: binds

B2
binding result [3]: binds

B3: EutC^1–20 encapsulation peptide (peptide)
peptide: MDQKQIEEIVRSVMASMGQD
notes: EutC of S. Typhimurium LT2, N-terminal encapsulation peptide, residues 1-20; also called EutC peptide; EP of EutC; source: synthetic peptide (GenicBio)
Kd [4]: 6.35 µM
dH [4]: -9.24 ± 0.01 kcal/mol
stoichiometry N [4]: ~2
Kd [5]: 7.6 µM
dH [5]: -9.63 ± 0.48 kcal/mol
stoichiometry N [5]: ~1
Kd [6]: 21.5 µM
